From PMC4238058

Experiments:
[1] = biological target: triply phosphorylated His8-tagged Nephrin cytoplasmic tail (amino acids 1174-1223, Y1183F, Y1210F; pTyr1176, pTyr1193, pTyr1217) (human)
[2] = biological target: triply phosphorylated TIR3Y (His8-tagged human Nephrin tail with its pTyr sites replaced by the pTyr motif of EPEC Tir) (EPEC | human)
[3] = biological target: (SH3)3: three repeats of the second Nck SH3 domain, plus the Nck SH2 domain (human)

Substance	clustering concentration of (SH3)3 (SH3 module concentration) on bilayers with p-Nephrin and 500 nM N-WASP [1] [nM]	clustering concentration of (SH3)3 (SH3 module concentration) on bilayers with p-TIR at 2000 molecules/um^2 and 500 nM N-WASP [2] [nM]	equilibrium fractional intensity of p-Nephrin clusters (1 uM (SH3)3, 500 nM N-WASP) against peptide concentration, 100 nM to 100 uM; the pair that is blocked: (SH3)3 with p-Nephrin [3] [µM]
(SH3)3: three repeats of the second Nck SH3 domain, plus the Nck SH2 domain (designed binder)	200	100	–
TIR-1pY: N-terminal rhodamine labeled single pTyr motif from EPEC Tir protein (peptide)	–	–	> 10
